Key:
MS2 coat protein [1] = assay: apparent KD of MS2 coat protein; designed switch direction (-1 OFF switch, 1 ON switch): 1; higher = weaker reporter binding; conditions: Eterna round: R98
Experimental: (§1)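 RNA-MaP: designed FMN/MS2 RNA switches (84 nt design region) are transcribed on-chip within common flanks and titrated with SNAP-549-labelled MS2 coat protein (about 1-3000 nM) in 100 mM Tris pH 7.5, 80 mM KCl, 4 mM MgCl2, without or with 200 uM FMN. Median apparent KD per design; activation ratio = KD,OFF / KD,ON.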

MS2 coat protein [2] = assay: apparent KD of MS2 coat protein; higher = weaker reporter binding; conditions: Eterna round: R101
Experimental: as §1

## ACAUGAGGAUCACCCAUGUAAUAACAUCGGAUUGUCGAAGGUGAGGAUAUCGUACUGGAAUAUUUCGAGAAGGCACAUUCUCCU [JR_SSNG3_Sub075]
MS2 coat protein [1]; input ligand: FMN 200 uM
  apparent KD of MS2 coat protein: 25.9 nM
MS2 coat protein [1]; input ligand: none
  apparent KD of MS2 coat protein: 23.5 nM

## AUAGCAUACCGAGGAUAUUCAUAUAAUAAAUAAACAUGAGGAUCACCCAUGUGGCGAAAGCCUAGGGAGAAGGCGGAAUGCUAG [salish99_SSNG2_r2_101]
MS2 coat protein [1]; input ligand: FMN 200 uM
  apparent KD of MS2 coat protein: 29.9 nM
MS2 coat protein [1]; input ligand: none
  apparent KD of MS2 coat protein: 237 nM

## AUUAAUGGGUGAGGAUAUGCACAGGAUCACCGUGUAGAAGGCAUCAGGUAGAAGGUGCAGAGGAUCACCCUGUAAGGAUAUAUC [pwkr2 ssNG1 DX.13]
MS2 coat protein [1]; input ligand: FMN 200 uM
  apparent KD of MS2 coat protein: 858 nM
MS2 coat protein [1]; input ligand: none
  apparent KD of MS2 coat protein: 998 nM

## CAAUUAUGGUGAGGAUAUGCACAGGAUCACCGUGUAGAAGGCAUCAGGUAGAAGGUGCAGAGGAUCACCCUGUAAGGAUAUAUC [pwkr2 ssNG1 DX.17]
MS2 coat protein [1]; input ligand: FMN 200 uM
  apparent KD of MS2 coat protein: 109 nM
MS2 coat protein [1]; input ligand: none
  apparent KD of MS2 coat protein: 666 nM

## CACUCAAGGUGAGGAUAUGCACAGGAUCACCGUGUAGAAGGCAUCAGGUAGAAGGUGCAGAGGAUCACCCUGUAAGGAUAUAUC [pwkr2 ssNG1 DX.11]
MS2 coat protein [1]; input ligand: FMN 200 uM
  apparent KD of MS2 coat protein: 334 nM
MS2 coat protein [1]; input ligand: none
  apparent KD of MS2 coat protein: 867 nM

## CAUAGGUGUACAUGAGGAUCACCCAUGUCCCUGGUCAUUGGACAGGAUAUAUGGGCGGUCGCUUCAUAGAAGGGUUAAAUGGGA [Orenatis]
MS2 coat protein [1]; input ligand: FMN 200 uM
  apparent KD of MS2 coat protein: 224 nM
MS2 coat protein [1]; input ligand: none
  apparent KD of MS2 coat protein: 66.6 nM

## CAUGAAGGGUGAGGAUAUGCACAGGAUCACCGUGUAGAAGGCAUCAGGUAGAAGGUGCAGAGGAUCACCCUGUAAGGAUAUAUC [pwkr2 ssNG1 DX.16]
MS2 coat protein [1]; input ligand: FMN 200 uM
  apparent KD of MS2 coat protein: 482 nM
MS2 coat protein [1]; input ligand: none
  apparent KD of MS2 coat protein: 1310 nM

## CCAGAGAUAUGAGGAUAUCGAGUGGAUAACACUCGAGAAGGCAUGUGAAAACAUGAGGAUCACCCAUGUGAUCAAUACUCUGGA [Same State NG1 - WT Aptamer 2D]
MS2 coat protein [1]; input ligand: FMN 200 uM
  apparent KD of MS2 coat protein: 27.4 nM
MS2 coat protein [1]; input ligand: none
  apparent KD of MS2 coat protein: 170 nM

## CCCUUCAGAAGAGGGACAUGAGGAUCACCCAUGUAGGCUGCACAGGAUAUCGAUCGGAGGCGGUACGAGAAGGGUGACGUCAUU [Soedgege]
MS2 coat protein [1]; input ligand: FMN 200 uM
  apparent KD of MS2 coat protein: 168 nM
MS2 coat protein [1]; input ligand: none
  apparent KD of MS2 coat protein: 79.3 nM

## CCGGAAACGGGUAGCUGACAUGAGGAUCACCCAUGUGAAUCUGAGGAUAUGGAUGGUAAUUCCAUCCAGAAGGCAGUCAGCUAC [Mat - Same State NG 3 - JL Mod - D82]
MS2 coat protein [1]; input ligand: FMN 200 uM
  apparent KD of MS2 coat protein: 59.1 nM
MS2 coat protein [1]; input ligand: none
  apparent KD of MS2 coat protein: 551 nM

## CCGGAAACGGGUAGCUGUACAUGAGGAUCACCCAUGUGAUCAUAGGAUAUGGUUCCUAAUUGGAACCAGAAGGAUGUCAGCUAC [Mat - Same State NG 3 - JL Mod - D86]
MS2 coat protein [1]; input ligand: FMN 200 uM
  apparent KD of MS2 coat protein: 434 nM
MS2 coat protein [1]; input ligand: none
  apparent KD of MS2 coat protein: 32.6 nM

## CCGGUGUAUGCAGGAUAUGAGAGGAGGUGACCAUCAGAAGGGCAAGCCCACAUGAGGAUCACCCAUGUACUAAGAGACAAGGCC [Tienlaonso]
MS2 coat protein [1]; input ligand: FMN 200 uM
  apparent KD of MS2 coat protein: 50.7 nM
MS2 coat protein [1]; input ligand: none
  apparent KD of MS2 coat protein: 25.5 nM

## CCGUGACACGAAGGAUAUGUGGGUGGUAGUCUGUGCUCCGCCUACAUGAGGAUCACCCAUGUAUCACAGAAGGUCGGACGUCAA [Zaaerzaza]
MS2 coat protein [1]; input ligand: FMN 200 uM
  apparent KD of MS2 coat protein: 71.2 nM
MS2 coat protein [1]; input ligand: none
  apparent KD of MS2 coat protein: 51.3 nM

## CCUACCAACACAGGAUAUGCUAUCCUUUGGGUAGCAGAAGGGUGAAACAUGAGGAUCACCCAUGUGGUGGGACCCGGUGACGGG [Mat - Same State NG 1 - Eli mod - D70]
MS2 coat protein [1]; input ligand: FMN 200 uM
  apparent KD of MS2 coat protein: 116 nM
MS2 coat protein [1]; input ligand: none
  apparent KD of MS2 coat protein: 1010 nM

## CUAAUUUAUUGAGGAUAUGCACAGGAUCACCGUGUAGAAGGCAUCAGGGAGAAGGUGCAGAGGAUCACCCUGUAAGGAUAUCAA [pwkr2 ssNG1 DX.3]
MS2 coat protein [1]; input ligand: FMN 200 uM
  apparent KD of MS2 coat protein: 105 nM
MS2 coat protein [1]; input ligand: none
  apparent KD of MS2 coat protein: 231 nM

## CUAGCAUACCGAGGAUAUUCAUAUAAUAAAUAAACAUGAGGAUCACCCAUGUGGCGAAAGCCUAGGGAGAAGGCGGAAUGCUAG [salish99_SSNG2_r2_004]
MS2 coat protein [1]; input ligand: FMN 200 uM
  apparent KD of MS2 coat protein: 20.1 nM
MS2 coat protein [1]; input ligand: none
  apparent KD of MS2 coat protein: 212 nM

## GCACUCAAGUUAGGAUAUGGAUCGGAAAACGAUCCAGAAGGAACAUGGGAACAUGAGGAUCACCCAUGUUCCAGAAACGAGUGC [SameSame 1 - Jieux - Same State NG 1]
MS2 coat protein [1]; input ligand: FMN 200 uM
  apparent KD of MS2 coat protein: 188 nM
MS2 coat protein [1]; input ligand: none
  apparent KD of MS2 coat protein: 733 nM

## GCACUCAAGUUAGGAUAUGGAUCGGAAACCGAUCCAGAAGGAACACAAUAACAUGAGCAUCAGCCGUGUUCCAGAAACGAGUGC [SameSame 15 - Jieux - Same State NG 1]
MS2 coat protein [1]; input ligand: FMN 200 uM
  apparent KD of MS2 coat protein: 126 nM

## GCAGAAGGUGCGGAGGAUCACCCUGUAAGGAUAUGCAUUAGCAAGGAUAUACAGAGGAUCACCCUGUAGAAGGUGCACUACAAA [pwkr2 ssNG3 DX.5]
MS2 coat protein [1]; input ligand: FMN 200 uM
  apparent KD of MS2 coat protein: 525 nM
MS2 coat protein [1]; input ligand: none
  apparent KD of MS2 coat protein: 1890 nM

## GCCACAUGAGGAUCACCCAUGUACGGUUCCGUCUCAUUAGUGCAGGAUAUGUUCACCGGAAGUGUGCAGAAGGGUAAAAGUGGG [Onar]
MS2 coat protein [1]; input ligand: FMN 200 uM
  apparent KD of MS2 coat protein: 209 nM
MS2 coat protein [1]; input ligand: none
  apparent KD of MS2 coat protein: 88.2 nM

## UAAAUAAAUCCUAGAGGAUCACCCUAGGAUAUCACCGUCGAGGUGCCAUAAUGGCACCUCGACGGUGAGAAGGAGGAAAAUAAA [#SharedSequence - SLExNG3: 4] (puzzle (switch architecture): Small Loop Exclusion NG 3)
MS2 coat protein [2]; input ligand: FMN 200 uM
  apparent KD of MS2 coat protein: 6.64 nM
MS2 coat protein [2]; input ligand: none
  apparent KD of MS2 coat protein: 6.46 nM

## UAAUCUCGAGCCGACGGGAGAUUACAUGAGGAUCACCCAUGUGAGGAUAUCCCUGAGAAGACGGCGGAGAAGGCACUGGGUAGG [Diraoran] (puzzle (switch architecture): Exclusion NG 3)
MS2 coat protein [2]; input ligand: FMN 200 uM
  apparent KD of MS2 coat protein: 18.3 nM
MS2 coat protein [2]; input ligand: none
  apparent KD of MS2 coat protein: 9.79 nM

## UAUAAUCUUUAAGGAUAUCAGUGGCUUUGCCACUGAGAAGGUGAGGAUCACCCACCUACGUGACCCUGGUUUCAGGGUCACGAU [#AddUracilToBrourdLoops 10 - Jieux - Exclusion NG1] (puzzle (switch architecture): Exclusion NG 1)
MS2 coat protein [2]; input ligand: FMN 200 uM
  apparent KD of MS2 coat protein: 11.6 nM
MS2 coat protein [2]; input ligand: none
  apparent KD of MS2 coat protein: 10 nM

## UAUUAUAUGGAGAAGGACAUGAGGAUCACCCAUGUCGCCGGGCCCGGGAAACCGGGCCCGGCCAUGUAGGAUAUCCAUAUGGUA [#This is a good prank 6] (puzzle (switch architecture): Inverted Exclusion NG 2)
MS2 coat protein [2]; input ligand: FMN 200 uM
  apparent KD of MS2 coat protein: 5.41 nM
MS2 coat protein [2]; input ligand: none
  apparent KD of MS2 coat protein: 4.78 nM

## UCAGUAGAGUCAGGAUAUACAAAAGGCGAUCCAUACAUGAGGAUCACCCAUGUAGAAGGGACUCUACUGUAAGUCGGAAACGAC [#StaticStemDeletion - Eli x2 4.003] (puzzle (switch architecture): Small Loop Exclusion NG 1)
MS2 coat protein [2]; input ligand: FMN 200 uM
  apparent KD of MS2 coat protein: 11.6 nM
MS2 coat protein [2]; input ligand: none
  apparent KD of MS2 coat protein: 165 nM

## UCAUUUAUCACAGGAUAUAUUAGUAUACAGUUGUUUGGUUAUUACAUAUUAAUAGAAGGGUGAAACAUGAGGAUCACCCAUGUA [S-loop S-stateNG1 03] (puzzle (switch architecture): Small Loop Same State NG 1)
MS2 coat protein [2]; input ligand: FMN 200 uM
  apparent KD of MS2 coat protein: 113 nM
MS2 coat protein [2]; input ligand: none
  apparent KD of MS2 coat protein: 367 nM

## UCUUAAUUGUAGAAGGGUGACAUGAGGAUCACCCAUGUGCACGCGCGAUUUACGGCGCGCGUGCCACAGGAUAUACAGUUGGGU [Erinquve] (puzzle (switch architecture): Inverted Same State NG 2)
MS2 coat protein [2]; input ligand: FMN 200 uM
  apparent KD of MS2 coat protein: 12.1 nM
MS2 coat protein [2]; input ligand: none
  apparent KD of MS2 coat protein: 41.1 nM

## UUUAGUUUGUAGAAGGGUGACAUGAGGAUCACCCAUGUGCGUCGCCUGAAAGACCAGGGUACGCCACAGGAUAUACAAAGUAAA [Tiveedbila] (puzzle (switch architecture): Inverted Same State NG 2)
MS2 coat protein [2]; input ligand: FMN 200 uM
  apparent KD of MS2 coat protein: 76.8 nM
MS2 coat protein [2]; input ligand: none
  apparent KD of MS2 coat protein: 39.6 nM
